From patent US20030199036

Target: S. pombe cdc25 tagged with a triple tandem copy of the hemagglutinin epitope (UniProt P06652)

Substance: Schizosaccharomyces pombe pub1 (untagged)
- accumulation of cdc25 higher molecular weight (ubiquitinated) species in mts2 mutants, pub1 wild type (SP 1212) against pub1 disruption (SP 1213), Western blot: We estimate that disruption of pub1 reduces the accumulation of cdc25 higher molecular weight species at least 10 fold.
